Biological target: 6×His human TRIM21 PRYSPRY labelled with Alexa Fluor 488 (human) (UniProt P19474)
Experiment: fluorescence anisotropy; 5 nM Alexa Fluor 488-labelled human TRIM21 PRYSPRY, antibody titrated

Sequence of UniProt P19474 (P19474 287-465 limits assumed): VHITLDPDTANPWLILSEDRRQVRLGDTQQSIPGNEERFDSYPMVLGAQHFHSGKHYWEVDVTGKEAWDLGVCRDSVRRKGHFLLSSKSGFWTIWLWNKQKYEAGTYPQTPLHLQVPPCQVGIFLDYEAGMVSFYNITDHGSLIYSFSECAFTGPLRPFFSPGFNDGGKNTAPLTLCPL

Substance | Kd [nM] | fold increase in affinity against 9C12 WT [fold]
9C12 N297A T256P (mouse-human chimeric, human IgG1 Fc) (antibody) | 0.467 | –
9C12 T256P (mouse-human chimeric, human IgG1 Fc) (antibody) | 1 | 10
AP422 N297A (mouse-human chimeric, human IgG1 Fc region) (antibody) | 14 | –
AP422 N297A T256P (mouse-human chimeric, human IgG1 Fc region) (antibody) | 0.9 | –
AP422 NALALA (N297A, L234A, L235A; mouse-human chimeric, human IgG1 Fc region) (antibody) | 29 | –
AP422 NALALA T256P (mouse-human chimeric, human IgG1 Fc region) (antibody) | 0.1 | –
AP422 T256P (mouse-human chimeric, human IgG1 Fc region) (antibody) | 0.7 | –
